Data published in publication PMC10397247.
Values belong to the binder of their own block, whether it stands above or below them.

Experiments:
Test in all cases: two-hybrid library CCmax;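 also: natural log of median RNA to DNA barcode read ratio; higher means stronger binding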
Details in all cases: mean of both orientations
4H3777-AA = biological target: T1, 4H3777-AA
T1 chain: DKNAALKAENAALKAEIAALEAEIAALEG

4H478-AA = biological target: T2, 4H478-AA
T2 chain: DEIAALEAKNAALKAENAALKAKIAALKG

4H3628-AA = biological target: T3, 4H3628-AA
T3 chain: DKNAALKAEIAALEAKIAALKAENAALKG

4H2283-AA = biological target: T4, 4H2283-AA
T4 chain: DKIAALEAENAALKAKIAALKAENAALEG

4H656-AA = biological target: T5, 4H656-AA
T5 chain: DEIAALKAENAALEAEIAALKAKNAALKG

P5-AA-1HAA-E = biological target: T6, P5-AA-1HAA-E
T6 chain: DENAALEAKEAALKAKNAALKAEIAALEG

P6-AA-12HAA-H = biological target: T7, P6-AA-12HAA-H
T7 chain: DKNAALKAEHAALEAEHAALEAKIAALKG

4H1802-AA = biological target: T8, 4H1802-AA
T8 chain: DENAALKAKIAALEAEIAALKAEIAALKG

APC4436-AA = biological target: T9, APC4436-AA
T9 chain: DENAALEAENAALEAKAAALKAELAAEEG

4H3330-AA = biological target: T10, 4H3330-AA
T10 chain: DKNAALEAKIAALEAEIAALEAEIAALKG

P6-AA-12HGe-Q = biological target: T11, P6-AA-12HGe-Q
T11 chain: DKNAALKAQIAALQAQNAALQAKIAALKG

P6-AA-12HGe-D = biological target: T12, P6-AA-12HGe-D
T12 chain: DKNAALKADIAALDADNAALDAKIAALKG

Binder: DENAALEAEIAALEAKIAALEAKNAALKG [4H1064-AA]
interaction score (4H478-AA): -1.56
interaction score (4H3628-AA): 1.07
interaction score (4H2283-AA): -1.69
interaction score (4H656-AA): -1.36

Binder: DENAALEAKIAALKAKIAALKAEIAALEG [4H1385-AA]
interaction score (P6-AA-12HAA-H): 1.75

Binder: DENAALEAENAALKAKIAALKAEIAALEG [4H1257-AA]
interaction score (4H1802-AA): -1.38

Binder: DENAALEAKIAALKAKNAALKAEIAALEG [4H1401-AA]
interaction score (P6-AA-12HGe-Q): 1.69
interaction score (P6-AA-12HGe-D): -0.647

The remaining lines, values ahead:

interaction score (4H3777-AA): -0.457
Binder: DEIAALEAENAALKAKNAALKAEIAALEG [4H249-AA]

interaction score (P5-AA-1HAA-E): 1.24
Binder: DKNAALKAEIAALEAENAALEAKIAALKG [4H3606-AA]

interaction score (APC4436-AA): -1.83
interaction score (4H3330-AA): -1.3
Binder: DENAALKAKIAALEAKNAALEAKIAALEG [4H1845-AA]
